Test results: article PMC3200309 (Cell, 2011)

Key:
[1] = target: scFv45 (conformation-sensor single chain variable fragment, purified from E. coli) (chicken); assay: SPR
[2] = target: PTP1B-CASA mutant (C215A, S216A), PTP1B (1-321) (Homo sapiens, UniProt P18031, Cys215 to Ala | Ser216 to Ala); assay: SPR

B1: PTP1B-OX, PTP1B (1-321) reversibly oxidized with H2O2 (domain or fragment)
chain: MEMEKEFEQIDKSGSWAAIYQDIRHEASDFPCRVAKLPKNKNRNRYRDVSPFDHSRIKLHQEDNDYINASLIKMEEAQRSYILTQGPLPNTCGHFWEMVWEQKSRGVVMLNRVMEKGSLKCAQYWPQKEEKEMIFEDTNLKLTLISEDIKSYYTVRQLELENLTTQETREILHFHYTTWPDFGVPESPASFLNFLFKVRESGSLSPEHGPVVVHCSAGIGRSGTFCLADTCLLLMDKRKDPSSVDIKKVLLEMRKFRMGLIQTADQLRFSYLAVIEGAKFIMGDSSVQDQWKELSHEDLEPPPEHIPPPPRPPKRILEPHN
modifications: active site Cys215 reversibly oxidized (cyclic sulfenyl-amide: S of Cys215 linked to the main-chain N of Ser216)
- Kd [1]: 46 nM
- koff [1]: 0.0023 s⁻¹

B2: scFv45 (conformation-sensor single chain variable fragment, purified from E. coli) (scFv, V domains shown)
VH: TVTLDESGGGLQAPGGALSLVCKASGFTFSSYDMGWIRQAPGKGLEYVAGITDNGRYASYGSAVDGRATISRDNGQSSVRLQLNNLRAEDTGTYYCARDDGSGWTGNSIDAWGHGTEVIVSS
VL: LTQPSSVSANPGGTVKITCSGSSSAYGYGWYQQKSPGSAPVTVIYNNNKRPSNIPSRFSGSKSGSTGTLTITGVQAEDEAVYFCGSEDSSTDAIFGAGTTLTVL
- Kd [2]: 52 nM
